According to PMC2063623:

Molecular target: pCMV-BD-DLC-1 (human) (UniProt Q96QB1)
Test: two-hybrid

UniProt Q96QB1, sequence (Q96QB1 whole entry): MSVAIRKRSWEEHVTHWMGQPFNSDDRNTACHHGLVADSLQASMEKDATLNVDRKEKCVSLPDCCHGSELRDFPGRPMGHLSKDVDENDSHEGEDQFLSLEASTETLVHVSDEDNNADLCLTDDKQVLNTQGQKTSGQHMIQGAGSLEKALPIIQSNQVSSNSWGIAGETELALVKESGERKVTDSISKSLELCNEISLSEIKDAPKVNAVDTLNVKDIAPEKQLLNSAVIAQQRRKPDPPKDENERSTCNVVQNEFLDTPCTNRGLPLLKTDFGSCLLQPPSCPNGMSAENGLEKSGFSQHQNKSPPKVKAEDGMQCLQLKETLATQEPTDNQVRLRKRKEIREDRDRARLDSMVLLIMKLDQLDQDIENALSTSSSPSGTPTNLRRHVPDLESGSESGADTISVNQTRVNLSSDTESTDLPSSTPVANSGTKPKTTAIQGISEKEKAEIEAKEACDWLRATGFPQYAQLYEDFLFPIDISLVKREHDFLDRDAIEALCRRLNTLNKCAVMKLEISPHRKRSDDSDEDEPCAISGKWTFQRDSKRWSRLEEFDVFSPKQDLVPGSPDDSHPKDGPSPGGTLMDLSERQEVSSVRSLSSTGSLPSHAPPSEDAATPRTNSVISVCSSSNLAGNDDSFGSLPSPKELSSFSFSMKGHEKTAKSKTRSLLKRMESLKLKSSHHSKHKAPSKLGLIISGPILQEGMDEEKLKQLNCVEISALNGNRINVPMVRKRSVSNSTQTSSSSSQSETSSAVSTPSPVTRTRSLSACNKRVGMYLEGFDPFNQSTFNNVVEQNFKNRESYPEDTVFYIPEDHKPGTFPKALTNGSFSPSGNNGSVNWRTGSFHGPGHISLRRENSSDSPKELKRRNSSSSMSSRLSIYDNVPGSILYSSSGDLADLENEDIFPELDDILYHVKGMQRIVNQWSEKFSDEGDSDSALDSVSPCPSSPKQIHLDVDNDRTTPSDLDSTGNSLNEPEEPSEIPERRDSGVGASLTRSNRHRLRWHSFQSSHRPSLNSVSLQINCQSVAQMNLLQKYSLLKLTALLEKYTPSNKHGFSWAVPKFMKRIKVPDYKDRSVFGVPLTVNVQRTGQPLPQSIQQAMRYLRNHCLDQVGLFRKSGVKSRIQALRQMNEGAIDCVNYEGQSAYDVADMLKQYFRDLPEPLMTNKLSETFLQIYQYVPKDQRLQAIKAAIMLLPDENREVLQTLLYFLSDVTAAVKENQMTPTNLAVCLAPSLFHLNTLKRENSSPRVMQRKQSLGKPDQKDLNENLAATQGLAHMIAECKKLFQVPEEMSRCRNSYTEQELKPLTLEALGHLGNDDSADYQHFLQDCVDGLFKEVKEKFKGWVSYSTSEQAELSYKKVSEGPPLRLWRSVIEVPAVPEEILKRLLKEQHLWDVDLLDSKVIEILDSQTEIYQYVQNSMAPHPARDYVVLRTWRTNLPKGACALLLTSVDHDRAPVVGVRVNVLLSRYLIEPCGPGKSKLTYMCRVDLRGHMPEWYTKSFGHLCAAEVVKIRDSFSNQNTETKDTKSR

Q: With “pCMV-AD-cten (from UniProt Q8IZW8 1-715) (natural protein)” as the substance, how does the fold enhancement of luciferase activity read?
A: 4 fold
